Experiments:
[1] = biological target: recombinant bovine Casq1 (non-glycosylated) (bovine (B. taurus)); experiment: crystal structure; high-Ca2+ form: protein incubated with 5 mM Ca2+ before mixing (2.5 mM in the drop); hanging drop, 4 °C, 0.1 M HEPES, 0.2 M NaCl, 27.5% MPD, pH 7.0
[2] = biological target: recombinant bovine Casq1 (non-glycosylated) (bovine (B. taurus)); experiment: SEC-MALS; 50 µM Casq1 on Yarra 3u SEC-2000, 20 mM MOPS, 300 mM KCl, 0.05 g/dL NaN3, pH 7.2, 2 mM CaCl2
[3] = biological target: native bovine Casq1 (skeletal muscle calsequestrin, glycosylated) (bovine (B. taurus)); experiment: crystal structure; high-Ca2+ form: protein incubated with 5 mM Ca2+ before mixing (2.5 mM in the drop); hanging drop, 4 °C, 0.1 M HEPES, 0.2 M NaCl, 27.5% MPD, pH 7.0
[4] = biological target: native bovine Casq1 (skeletal muscle calsequestrin, glycosylated) (bovine (B. taurus)); experiment: SEC-MALS; 50 µM Casq1 on Yarra 3u SEC-2000, 20 mM MOPS, 300 mM KCl, 0.05 g/dL NaN3, pH 7.2, 1 mM CaCl2
[5] = biological target: native bovine Casq1 (skeletal muscle calsequestrin, glycosylated) (bovine (B. taurus)); experiment: SEC-MALS; 50 µM Casq1 on Yarra 3u SEC-2000, 20 mM MOPS, 300 mM KCl, 0.05 g/dL NaN3, pH 7.2, 2 mM CaCl2

**Q.** Which stoichiometry N [1] does the source give for “recombinant bovine Casq1 (non-glycosylated) (natural protein)” here?
**A.** The stoichiometry N was 6.

**Q.** What about the stoichiometry N [2] of the same substance?
**A.** The stoichiometry N was 2.

**Q.** For “native bovine Casq1 (skeletal muscle calsequestrin, glycosylated) (natural protein)”, which stoichiometry N [3] is on record?
**A.** The stoichiometry N was 6.

**Q.** And the stoichiometry N [4]?
**A.** Its stoichiometry N is 2.

**Q.** What about the stoichiometry N [5] of the same substance?
**A.** Its stoichiometry N is 4.
